Laboratory results: the supplement of paper PMC7877785
± gives the uncertainty stated by the source.

Assay: self-splicing fitness, log relative to wild type (ln ratio); higher = more splicing; Tetrahymena group I intron in knt gene, E. coli kanamycin selection, DiMSum; sequences stand for … in CUCUCU…GGAGGGAAAAGUUAUCAGGCAUGCACCUGGUAGCUAGUCUUUAAACCAAUAGAUUGCAUCGGUUUAAAAGGCAAGACCGUCAAAUUGCGGGAAAGGGGUCAACAGCCGUUCAGUACCAAGUCUCAGGGGAAACUUUGAGAUGGCCUUGCAAAGGGUAUGGUAAUAAGCUGACGGACAUGGUCCUAACCACGCAGCCAAGUCCUAAGUCAACAGAUCUUCUGUUGAUAUGGAUGCAGUUCACAGACUAAAUGUCGGUCGGGGAAGAUGUAUUCUUCUCAUAAGAUAUAGUCGGACCUCUCCUUAAUGGGAGCUAGCGGAUGAAGUGAUGCAACACUGGAGCCGCUGGGAACUAAUUUGUAUGCGAAAGUAUAUUGAUUAGUUUUGGAGUACUCGUGGUCG
How it was run: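 Library with all eight P1ex-region intron nucleotides randomised, intron inside the knt kanamycin-resistance gene on pET-22b(+), in E. coli BL21(DE3). Cells grew overnight at 37°C or 30°C on LB agar with or without 25 μg/mL kanamycin (plus 100 μg/mL carbenicillin, 50 μM IPTG, 0.2% rhamnose), in six replicate transformations. Pooled colonies were amplicon-sequenced on Illumina HiSeq 2500. DiMSum fitness is the error-weighted combination of wild-type-normalised replicate fold changes, kanamycin versus none.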

Row | Sequence | self-splicing fitness (ln) (30 °C) | self-splicing fitness (ln) (37 °C)
1 | CUUAAGCAAUAUUACGACAA | -2.75 ± 0.41 | -2.98 ± 0.34
2 | GCGUAGCAAUAUUACGGGCU | -3.57 ± 0.32 | -1.62 ± 0.2
3 | CGCGAGCAAUAUUACGGUAA | -2.58 ± 0.23 | -1.58 ± 0.31
4 | CCCCAGCAAUAUUACGCACG | -2.64 ± 0.11 | -2.2 ± 0.17
5 | CAGGAGCAAUAUUACGUAUA | -4.26 ± 0.34 | -1.62 ± 0.21
6 | ACUAAGCAAUAUUACGACAG | -0.663 ± 0.085 | -0.322 ± 0.11
7 | AGACAGCAAUAUUACGCAGC | -2.72 ± 0.23 | -2.19 ± 0.39
8 | GCUCAGCAAUAUUACGCCAG | -3.54 ± 0.26 | -1.83 ± 0.3
9 | CUUUAGCAAUAUUACGCUGG | -3.05 ± 0.3 | -1.99 ± 0.3
10 | UGGCAGCAAUAUUACGGACU | -0.554 ± 0.066 | 0.386 ± 0.082
11 | CGUAAGCAAUAUUACGUACA | -1.59 ± 0.13 | -0.137 ± 0.13
12 | CGGGAGCAAUAUUACGCCAC | -3.63 ± 0.29 | -2.63 ± 0.41
13 | AGGCAGCAAUAUUACGAACC | -0.0701 ± 0.18 | -1.03 ± 0.2
14 | AGAGAGCAAUAUUACGCAGG | -2.58 ± 0.13 | -3.21 ± 0.33
15 | GGUCAGCAAUAUUACGCACG | 0.0799 ± 0.1 | 0.287 ± 0.13
16 | GGCUAGCAAUAUUACGAUAA | -1.28 ± 0.17 | -1.75 ± 0.16
17 | GCUCAGCAAUAUUACGUUUG | -2.64 ± 0.13 | -1.8 ± 0.15
18 | GUCCAGCAAUAUUACGGGUA | -0.764 ± 0.061 | 0.14 ± 0.066
19 | CACGAGCAAUAUUACGUUAC | -4.19 ± 0.36 | -1.25 ± 0.23
20 | CAUGAGCAAUAUUACGUGUU | -3.85 ± 0.16 | -2.31 ± 0.15
21 | UAUCAGCAAUAUUACGGAAG | -0.901 ± 0.1 | -0.651 ± 0.12
22 | AAAAAGCAAUAUUACGGCAU | 0.0355 ± 0.061 | 0.55 ± 0.081
23 | ACAUAGCAAUAUUACGUCAU | -3.16 ± 0.1 | -2.35 ± 0.13
24 | CCACAGCAAUAUUACGGAAU | -3.23 ± 0.17 | -2.21 ± 0.18

Row | Sequence | self-splicing fitness (ln) (30 °C) | self-splicing fitness (ln) (37 °C)
25 | CGUGAGCAAUAUUACGUUUG | -2.04 ± 0.12 | -1.5 ± 0.21
26 | CCCGAGCAAUAUUACGUGCU | -3.55 ± 0.21 | -1.32 ± 0.16
27 | AGCUAGCAAUAUUACGUACA | -2.25 ± 0.23 | 0.0781 ± 0.18
28 | UGUAAGCAAUAUUACGUAUU | -2.86 ± 0.11 | -0.873 ± 0.083
29 | GCGGAGCAAUAUUACGUUUU | -3.29 ± 0.21 | -2.02 ± 0.21
30 | GAGGAGCAAUAUUACGUCAU | -2.41 ± 0.39 | -2.26 ± 0.4
31 | UAACAGCAAUAUUACGGUGU | -2.93 ± 0.11 | -2.01 ± 0.12
32 | UUUAAGCAAUAUUACGUGGU | -2.88 ± 0.16 | -2.62 ± 0.21
33 | CUCAAGCAAUAUUACGUUGA | -3.13 ± 0.21 | -2.48 ± 0.2
34 | UCACAGCAAUAUUACGCCCA | -1.47 ± 0.19 | 0.000225 ± 0.15
35 | CUCGAGCAAUAUUACGGAUG | -2.21 ± 0.13 | -1.46 ± 0.17
36 | GGCAAGCAAUAUUACGUGAC | -1.6 ± 0.12 | -0.479 ± 0.14
37 | ACUCAGCAAUAUUACGGUAU | -1.67 ± 0.057 | -0.522 ± 0.093
38 | UAGUAGCAAUAUUACGGUUU | -3.57 ± 0.31 | -0.883 ± 0.16
39 | CUAAAGCAAUAUUACGAGGA | -4.32 ± 0.29 | -1.62 ± 0.27
40 | GGAAAGCAAUAUUACGGGGU | -3.1 ± 0.22 | -3 ± 0.28
41 | CUCUAGCAAUAUUACGUCUG | -2.34 ± 0.12 | -2.27 ± 0.18
42 | CUUCAGCAAUAUUACGGUUG | -1.28 ± 0.071 | -0.455 ± 0.088
43 | GGGUAGCAAUAUUACGUUAA | -1.72 ± 0.16 | -0.668 ± 0.13
44 | ACACAGCAAUAUUACGCUGC | -2.18 ± 0.16 | -1.14 ± 0.15
45 | AAAGAGCAAUAUUACGUAAA | -3.11 ± 0.15 | -1.42 ± 0.13
46 | UGUUAGCAAUAUUACGUCCA | -0.514 ± 0.071 | 0.305 ± 0.13
47 | ACAGAGCAAUAUUACGGGCG | -3.27 ± 0.19 | -1.25 ± 0.2
